Residue numbers refer to the chain shown, from its start. Read-outs that look alike come from different tables or passages of the source.

From US20220119517A1 (NANJING SANHOME PHARMACEUTICAL, published 2022) come the findings set out here.

Test [1] has as its target T1, human Claudin18.2 (CLDN18.2), full length, on cells (human).
T1 construct: also called CLDN18.2-FL; HEK293-CLDN18.2 cells
Description: cellular ELISA, hybridoma supernatant on fixed HEK293-CLDN18.2 cells. The procedure: (§1) HEK293-CLDN18.1 and HEK293-CLDN18.2 cells were cultured separately with DMEM complete culture medium containing 10% fetal bovine serum at 37° C., 5% CO₂. When the cells grew to 80%-90% confluency, they were digested with 0.5 mM EDTA-PBS non-trypsin digestion solution at room temperature, and centrifuged at 1000 rpm for 5 minutes, the supernatant was discarded. Resuspended in DMEM complete culture medium, and the cell concentration was adjusted to 6×10⁵ cells/ml. Cells were plated on 96-well cell plates (Corning) pre-coated with polylysine, 100 μl per well, incubated at 37° C., 5% CO₂ for 24 hours, making cells evenly and completely plated on the bottom of the well. The culture supernatant was aspirated, and the cells were fixed with 4% paraformaldehyde at room temperature for 20 minutes, washed 3 times with 200 μl PBS, 2 minutes at each time. The well plates were blocked with 200 μl of 3% BSA-PBS at 37° C. for 1 hour. […] of subclone culture supernatant was taken and added into the well plate, incubated at 37° C. for 1 hour, washed 5 times with PBS. Incubation with HRP-anti mouse IgG+IgM (Jackson) diluted 1:10000 in blocking solution was performed at 37° C. for 1 hour followed by washing 5 times with PBS. 100 μl of TMB one-component color developing solution was added, protected from light at room temperature for 5-10 minutes, terminated with 2M sulfuric acid, and OD450 was read on the microplate reader. The results are shown in Table 3, subclones of which the hybridoma culture supernatant show strong positive binding to CLDN18.2 (that is, the OD value is 50% higher than the OD value of the positive control) include: S3F10C5, S5H3A6, S5H3B6, S5H3D6, S6F10E7, S6H9B8, S6H9C8, C40B10D9, C42B12D10 and C58B11E11. Among these subclones, S5H3A6, S5H3B6, S5H3D6, C40B10D9, C42B12D10 and C58B11E11 show negative binding to CLDN18.1 cells.
Background: In an ELISA, binding on a coated surface is turned into a signal by an enzyme label.

Test [2] deals with T2, human Claudin18.1 (CLDN18.1), full length, on cells (human, UniProt P56856 1-261).
T2 construct: HEK293-CLDN18.1 cells carry a fusion with green fluorescent protein (ZsGreen); CHO-K1-CLDN18.1 cells carry pcDNA3.1-CLDN18.1; The cell line is named under assay; also called CLDN18.1-FL; HEK293-CLDN18.1 cells
Kind of test: cellular ELISA, hybridoma supernatant on fixed HEK293-CLDN18.1 cells. The protocol: as §1

Test [3] has as its target T1, human Claudin18.2 (CLDN18.2), full …. Kind of test: cell-based or functional assay.
The target of test [4] is T3, antigen protein Claudin18.2-His (human, UniProt P56856-2 1-261, limits assumed).
T3 construct: also called CLDN18.2 protein
Description: BLI (Fortebio Octet RED96), antibody on AHC sensor, Claudin18.2-His in solution, 37 °C. The procedure:
Next, antibodies were immobilized by the AHC sensor, and then combined with different concentrations of antigens, and determination of the affinity was performed according to the manual of Octet RED96.
On the technique in general: Biolayer interferometry detects binding as a change in optical thickness at a sensor tip.

Test [5] concerns the target T2, human Claudin18.1 (CLDN18.1), full …. Kind of test: FACS on CHO-K1-CLDN18.1 cells. From the text:
(§2) Human gastric cancer cells NUGC4 and stably transfected cells CHO-K1-CLDN18.1 (prepared in Example 5) were used respectively, to verify the specificity and affinity of the anti-CLDN18.2 antibodies above at the cellular level by FAGS technology. After antibody affinity maturation and screening in vitro, each antibody can bind to the CLDN18.2 target on NUGC4 cells, but not to CHO-K1-CLDN18.1 cells, as compared with the original 3CHI antibody.

The target in test [6] is T1, human Claudin18.2 (CLDN18.2), full …. Kind of test: FACS on NUGC4 cells.
Text: as §2

In test [7] the target is T2, human Claudin18.1 (CLDN18.1), full …. Description: cellular ELISA.
Test [8] addresses T1, human Claudin18.2 (CLDN18.2), full …. Description: cellular ELISA on fixed HEK293-CLDN18.2 cells. The procedure: HEK293-CLDN18.1 and HEK293-CLDN18.2 cells were resuscitated two weeks in advance, cultured with DMEM complete culture medium containing 10% fetal bovine serum at 37° C., 5% CO₂. When the cells grew to 80%-90% confluency, they were digested with 0.5 mM EDTA-PBS (Sigma) at room temperature, centrifuged at 1000 rpm for 5 minutes, the supernatant was discarded. Cells were resuspended in DMEM complete culture medium, the cell concentration was adjusted to 6×10⁵ cells/ml. Cells were plated on 96-well cell plates (Corning) pre-coated with polylysine at 2.5 μg/well, 100 μl per well, incubated at 37° C., 5% CO₂ for 24 hours, making cells evenly and completely plated on the bottom of the well. The supernatant was aspirated, and the cells were fixed with 4% paraformaldehyde at room temperature for 20 minutes, washed 3 times with 200 μl PBS, 2 minutes at each time. The well plates were blocked with 200 μl of 3% BSA-PBS at 37° C. for 1 hour. Each chimeric antibody was diluted with 3% BSA-PBS to a concentration of 6 μg/ml, and diluted in a 6-fold gradient to a total of 7 concentrations. At the same time, IMAB362-similar-hG1 diluted in the same concentration gradient as the positive control, and human IgG1, kappa isotype control antibody (hereinafter referred to as Isotype, provided by CrownBio (Taicang) Co., Ltd.) as the negative control were added to HEK293-CLDN18.2 and HEK293-CLDN18.1 cell plates, respectively. The cells were incubated at 37° C. for 1 hour, washed 5 times with PBS. Incubation with HRP-anti human IgG (Jackson) diluted 1:10000 in blocking solution was performed at 37° C. for 1 hour followed by washing 5 times with PBS. 100 μl of TMB one-component color developing solution was added, protected from light at room temperature for 5-10 minutes, terminated with 50 μl of 2M sulfuric acid, OD450 was read on the microplate reader. Data processing: the original data was put into GraphPad 5.0 software for plotting and calculation.

Test [9] shares this target. Description: cell-based or functional assay. This is another data set of the same source.
For test [10] the target is unchanged. Kind of test: cell-based or functional assay. This is another data set of the same source.

B1: S6H9B8 (antibody, mouse IgG3, V domains shown)
VH: QVQLQQSGAELARPGASVKLSCKASGYTFTSYGISWVKQRTGQGLEWIGEIYPRSGNTYYNEKFKGKATLTADKSSSTAYMELRSLTSEDSAVYFCASLAWFAYWGQGTLVTVSA
VL: DIVMTQAAPSVPVTPGESVSISCRSSKSLLHSNGNTYLYWFLQRPGQSPQLLIYRMSNLASGVPDRFSGSGSGTAFTLRISRVEAEDVGVYYCMQHLEYPYTFGGGTKLEIK
notes: Hybridoma supernatant antibody; murine IgG3, kappa; also called subclone S6H9B8
For B1, the OD450 in test [1] was found to be 2.35 OD; in test [2], 1.5 OD.

B2: C40B10D9 (antibody, mouse IgM, V domains shown)
VH: QVQLKESGPGLVAPSQSLSITCTVSGFSLTSYGVSWVRQPPGKGLEWLGVIWGDGSTNYHSALISRLSISKDNSKSQVFLKLNSLQTDDTATYYCAGGLRLWFAYWGQGTLVTVSA
VL: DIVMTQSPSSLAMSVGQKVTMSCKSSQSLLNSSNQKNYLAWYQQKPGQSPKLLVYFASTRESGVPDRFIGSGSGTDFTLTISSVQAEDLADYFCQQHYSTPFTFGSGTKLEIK
notes: Hybridoma supernatant antibody; murine IgM, kappa; also called subclone C40B10D9
In [1], B2 yielded an OD450 of 0.664 OD. In test [2], the OD450 was found to be 0.114 OD and the binding result is listed as “no binding”.

B3: B4B10G3 (antibody, V domains shown)
VH: QIQLVQSGPELKKPGETVKISCKASGYTFTNYGMNWVKQAPGKGLKWMGWINTYTGEPTYADDFKGRFAFSLETSASTAYLQINNLKNEDMATYFCARDGQLGLRFAYWGQGTLVTVSA
VL: NIMMTQSPSSLAVSAGEKVTMSCKSSQSVLYSSNQKNYLAWYQQKPGQSPKLLIYWASTRESGVPDRFTGSGSGTDFTLTISSVQAEDLAVYYCHQYLSSRTFGGGTKLEIK
notes: Hybridoma supernatant antibody; murine IgG2b, kappa; also called subclone B4B10G3
Take B3: the OD450 in test [1] was found to be 0.343 OD; in test [2], 0.2 OD.

B4: 305CHI (antibody, human IgG1, V domains shown)
VH: EVKLVESGGGLVQPGGSLKLSCAASGFTFSDYGMAWVRQAPRKGPEWVAFISNLAYSIYYADTVTGRFTISRENAKNTLYLEMSSLRSEDTAMYYCARLGYGNSFAYWGQGTLVTVSA
VL: DIVMTQSPSSLTVTAGEKVTMSCKSSQSLLNSGNQKNYLTWYQQKPGQPPKLLIYWASTRESGVPDRFTGSGSGTDFTLTISSVQAEDLAVYYCQNELFYPLTFGAGTKLELK
notes: chimeric with the constant region of human IgG1
Take B4: in test [3], the “in-vitro ADCC activity, Jurkat-CD16A/NF luciferase reporter, EC50” value is 280 pM and the “in-vitro ADCC activity, Jurkat-CD16A/NF luciferase reporter, Top” value stood at 216000. Moreover, in test [4], binding was characterised by a dissociation constant (Kd) of 865 pM; the koff (in general, a measure of how fast the partners let go of each other) was 4.44e-05 s⁻¹; the kon – broadly, the rate constant with which the complex forms – is 51300 M⁻¹ s⁻¹. In addition, the “MFI (CLDN18.1)” value in [5] came out at 68 MFI. Also, in [6], the “MFI (CLDN18.2)” value is 38900 MFI. For the same molecule, the binding result in test [7] is “no binding”.

B5: 19CHI (antibody, V domains shown)
VH: QVQLQQSGAELVKPGASVKMSCKASGYTFTTYPIEWMKQNHGKSLEWIGNFHPYNDDTKYNEKFKGKATLTVEKSSSTVYLELSRLTSDDSAVYYCARRGYGSSYAMDYWGQGTSVTVSS
VL: B4 VL with T12S, T14S, T40A, W56G, E97D, L98H, F99S, L102Y, A106G, L112I
notes: Human-murine chimeric antibody with the constant region of human IgG1; also called chimeric antibody of C42B12D10
Regarding B5, in test [8], the EC50 (usually the concentration needed to bring the measured effect to its halfway point) worked out at 29900 pM.

B6: C42B12D10 (antibody, mouse IgM, V domains shown)
VH: B5 VH
VL: B4 VL with T12S, T14S, T40A, W56G, E97D, L98H, F99S, L102Y, A106G, L112I
notes: Hybridoma supernatant antibody; murine IgM, kappa; also called subclone C42B12D10
With B6, the OD450 in test [1] was 0.76 OD.

B7: C58B11E11 (antibody, mouse IgG2c, V domains shown)
VH: EVQLQQSGPELVKPGASVKMSCKASGYTFTDYNMHWVKQSHGKSLEWIGYINPNNGGTSYNQKFKGKATLTVNKSSSTAYMELRSLTSEDSAVYYCARIYYGNSFAYWGQGTLVTVSA
VL: B4 VL with E97D, L98Y, F99S, L102F, A106S, L112I
notes: Hybridoma supernatant antibody; murine IgG2c, kappa; also called subclone C58B11E11
In test [1], B7 gave an OD450 of 0.671 OD.

B8: S5H3B6 (antibody, mouse IgM, V domains shown)
VH: B4 VH
VL: B4 VL with E97D, L98Y, F99S
notes: Hybridoma supernatant antibody; murine IgM, kappa; also called subclone S5H3B6
With B8, the values for the OD450 in test [1] and in [2] were 1.38 OD and 0.152 OD, respectively. The binding result in [2] is on record as “no binding”.

B9: 5M (antibody, human IgG1, kappa)
heavy: QVQLQQPGAELVRPGASVKLSCKASGYTFTSYWINWVKQRPGQGLEWIGNIYPSDSYTNYNQKFKDKATLTVDKSSSTAYMQLSSPTSEDSAVYYCTRSWRGNSFDYWGQGTTLTVSSASTKGPSVFPLAPSSKSTSGGTAALGCLVKDYFPEPVTVSWNSGALTSGVHTFPAVLQSSGLYSLSSVVTVPSSSLGTQTYICNVNHKPSNTKVDKKVEPKSCDKTHTCPPCPAPELLGGPSVFLLPPKPKDTLMISRTPEVTCVVVDVSHEDPEVKFNWYVDGVEVHNAKTKPPEEQYNSTLRVVSILTVLHQDWLNGKEYKCKVSNKALPAPIEKTISKAKGQPREPQVYTLPPSRDELTKNQVSLTCLVKGFYPSDIAVEWESNGQPENNYKTTPLVLDSDGSFFLYSKLTVDKSRWQQGNVFSCSVMHEALHNHYTQKSLSLSPGK
light: DIVMTQSPSSLTVTAGEKVTMSCKSSQSLLNSGNQKNYLTWYQQKPGQPPKLLIYWASTRESGVPDRFTGSGSGTDFTLTISSVQAEDLAVYYCQNDYSYPFTFGSGTKLEIKRTVAAPSVFIFPPSDEQLKSGTASVVCLLNNFYPREAKVQWKVDNALQSGNSQESVTEQDSKDSTYSLSSTLTLSKADYEKHKVYACEVTHQGLSSPVTKSFNRGEC
With B9, in test [9], the “ADCC activity by luciferase labeling, EC50” value turned out to be 440 pM and the “ADCC activity by luciferase labeling, Top” value was 98400.

B10: Hu330-2 (antibody, V domains shown)
VH: EVQLVESGGGLVQPGGSLRLSCAASGFGFSDYGMAWVRQAPGKGLEWVSFISNSAYSIYYADTVTGRFTISRDNAKNSLYLQMNSLRAEDTAVYYCARLGRGNSFAYWGQGTLVTVSS
VL: EIVMTQSPPTLSLSPGERVTLSCKSSQSLLNSGNQKNYLTWYQQKPGQAPRLLIYWGSTRESSIPARFSGSGSGTDFTLTISSLQPEDLAVYYCQNELFYPLTFGQGTKLEIK
On to B10, for which, in test [10], the “ADCC activity by luciferase labeling, EC50” value amounted to 110 pM and the “ADCC activity by luciferase labeling, Top” value was found to be 65100.
